From patent publication US6863885B2, “Method of decreasing radiation or radio-mimetic chemotherapy for hematopoietic pluripotent cell engraftment” (The United States of America as represented by the …, priority 1995, dated 2005)

System: engraftment of donor Sca-1+ HPCs (donor Ly5.2 cells among recipient PBMCs)
Assay: Cytokine pre-conditioning effect on short term engraftment of donor Sca-1+ HPCs after 200 cGy radiation
Assay type: in vivo, C57BL/6-Ly-5.1-Pep3b mice
Settings: mice
Description: FIG. 1 is a bar graph showing the cytokine hematopoietic growth factor pretreatment conditioning effect on engraftment of HPCs following 200 cGy radiation in mice, one month after transplantation. Recipient C57BL/6J-Ly-5.1-Pep^3b mice received b.i.d. sc injections of PBS (□) 0.1% BSA, 4 μg rhGCSF (□) in 0.1% BSA, or 4 μg rhGCSF plus 1.0 μg rmSCF(▪) in 0.1% BSA (R&D Systems, Minneapolis, Minn.) for four days. On the fifth day, mice received a single sc injection followed one hour later by a 200 cGy radiation dose. Four hours after irradiation, all mice received 0.5×10^6 Sca-1+BM cells via tail vein injection. Mice were bled 1 month after BMT and PB was analyzed for engraftment. […] The data represent three experiments in series with 2 mice per condition in each experiment. All animals survived this procedure.
The data which forms the basis of the present invention concerns the enhanced in vivo transfer of purified SCA-1+bone marrow derived HPCs using congenic C57BL/6 mice, which differ only at the Ly5 locus. The origin of a cell is detectable by immunoreactivity with either anti-Ly5.1 or anti-Ly5.2 antibodies by FACS of PBMCs. […] Using this system, the effects of pre-transplantation cytokine conditioning on short term engraftment, defined as the percentage of total PBMCs in the recipient that were donor Ly5.2 cells, measured one month after transplantation, have been determined. […]

B1: rhGCSF: recombinant human granulocyte colony stimulating factor (R&D Systems), 4 μg in 0.1% BSA (protein, UniProt P09919 31-207, looked up)
Granulocyte …: TPLGPASSLPQSFLLKCLEQVRKIQGDGAALQEKLVSECATYKLCHPEELVLLGHSLGIPWAPLSSCPSQALQLAGCLSQLHSGLFLYQGLLQALEGISPELGPTLDTLQLDVADFATTIWQQMEELGMAPALQPTQGAMPAFASAFQRRAGGVLVASHLQSFLEVSYRVLRHLAQP
- engraftment (percentage of total PBMCs in the recipient that were donor Ly5.2 cells) (b.i.d. sc for four days plus final injection on day 5, 0.5×10^6 Sca-1+ cells iv, measured one month after transplantation): 18.9%
- fold increase in engraftment compared with control (one month after transplantation, versus vehicle control (0.1% BSA), p<0.01): at least a three fold increase
